Experiments:
P2-4G-BGTSTIP = target: T1, P2-4G-BGTSTIP; assay: SPR (Biacore 8K), HEV-p239 coupled to CM5 chip (Fig. 12)
T1 construct: also called PA-4G-BGTSTIP; VHH-BGTSTIP

[1] = target: P2-2C-RBD (insect cell expression system); assay: SPR (Biacore 8K), HEV-p239 coupled to CM5 chip (Fig. 10A)
[2] = target: P1-1G-RBD (insect cell expression system); assay: as above

Measured: binding result

B1: HEV-p239 protein (other)
chain: IALTLFNLADTLLGGLPTELISSAGGQLFYSRPVVSANGEPTVKLYTSVENAQQDKGIAIPHDIDLGESRVVIQDYDNQHEQDRPTPSPAPSRPFSVLRANDVLWLSLTAAEYDQSTYGSSTGPVYVSDSVTLVNVATGAQAVARSLDWTKVTLDGRPLSTIQQYSKTFFVLPLRGKLSFWEAGTTKAGYPYNYNTTASDQLLVENAAGHRVAISTYTTSLGAGPVSISAVAVLAPHSV
notes: also called HEV-p239 particles; HEV particles
binds: all assays above
